Measured values reported in patent US20260193326A1 (published 2026).
Positions count from the first letter of the chain named.

B1: A4-051 (VHH)
VHH: VQLQESGGGLVQPGGSLRLSCAASGSSFVINTMGWYRRAPGKQRELVAAVTRGGSTNYADSVKGRFTISRDNAKNTVYLQMNSLRPEDTAVYYCHVDEVRQSSWTTSNLWGQGTQVTVSS
B2: A4-067 (VHH)
VHH: VQLQESGGGLVQTGGSLRLSCAASGRAFSLNTMGWYRQAPGKWRELVATVTRGGSTNYAGSVKGRFTISRDNTKNTVYLQMNNLRPEDTAVYYCHVDEVRESSWTTSNLWGQGTQVTVSS
B3: A4-076 (VHH)
VHH: VQLQESGGGLVHSGGSLRLSCAASGSMFSLNTMGWYRQAPGKQRELVATITRGGGTSYADSVKGRFTISRDNAKNTVYLQMNSLRPEDTAVYYCHVDELRQSSWTTSNLWGQGTQVTVSS
B4: A4-068 (VHH)
VHH: B2 VHH with T73A
B5: A4-054 (VHH)
VHH: B1 VHH with S27A, V29S, R38Q
B6: A4-064 (VHH)
VHH: B2 VHH with T13S, A27N, M33V, W43Q, R52S, S55G, T73A, N83S, S103T
B7: A4-074 (VHH)
VHH: B3 VHH with H12Q
B8: A4-083 (VHH)
VHH: VQLQESGGGLVQTGGSLKLSCAASGSRFSLNTMGWYRQAPRKQREFVAAVTRGGNTNYGDFVKGRFTISRDNAKNTVYLQMNSLRPEDTAVYYCHVDELRESSWTTSNLWGQGTQVTVSS
B9: A4-072 (VHH)
VHH: B1 VHH with V11A, R38Q, L46F, A49T, A59G, D60E, S61F, V99L
B10: A4-056 (VHH)
VHH: B1 VHH with S27A, V29S, R38Q, L46K
B11: A4-071 (VHH)
VHH: B1 VHH with L10A, P13A, S27T, V29S, R38Q, A49T, A59G, S61F, S83T, V96L
B12: A4-077 (VHH)
VHH: B3 VHH with H12Q, S13P, L30I, T32I, L46F, G55S, S57N, S61F, Q101D
B13: A4-100 (VHH)
VHH: B1 VHH with S27I, R38Q, A49S, V50L, A73D, V77I, Q101E, S103T, L109I
B14: A4-094 (VHH)
VHH: B1 VHH with A22V, S27I, R38Q, A49T, G53D, S55G, V96I, V99I, Q101E
B15: A4-091 (VHH)
VHH: VQLQESGGGLVQPGGSLRLSCAASGSRFSINTMGWYRQRAGKQRELVATVTRDGSTTYANSVKGRFTISRDNAKNTVYLQMNSLRPEDTAVYYCHVDELRQSTWTTSNLWGQGTQVTVSS
B16: A4-098 (VHH)
VHH: VQLQESGGGLVQPGGSLRLSCIASGSIFSINTMGWYRQAPGKQRELVATITRGGNTNYGDSVKGRFTISRDNAKNTVYLQMNTLRPEDTAVYYCHVDEIRESSWTTSNLWGQGTQVTVSS
B17: A4-085 (VHH)
VHH: B8 VHH with T13P, K18R, R41G
B18: A4-095 (VHH)
VHH: B16 VHH with I22A, I27S, I30A, N75D, T83S, V96I, S103T
B19: A4-097 (VHH)
VHH: B16 VHH with I30A
B20: A4-086 (VHH)
VHH: B8 VHH with T13P, K18R, R41G, F46L, G59A
B21: A4-087 (VHH)
VHH: B8 VHH with T13P, K18R, R41G, F46L
B22: A4-096 (VHH)
VHH: B16 VHH with I27S, I30A, T83S, V96I, S103T

Molecular target: T1, AAV2 (adeno-associated virus 2, UniProt P03135 1-735)
T1 construct: also called adeno-associated virus serotype 2
Assay: SPR, AAV amine-coupled to CM5 chip;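 also: nanobodies flowed as analyte at seven concentrations spanning 1–100 nM over immobilized AAV (500–800 RU), kinetic constants derived by fitting the binding curves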
Experimental: (§1) AAV was amine-coupled to a CM5 sensor chip at a density of 500-800 response units (RU). Nanobodies were injected at seven concentrations (1-100 nM) with a flow rate of 45 μL/min, and chip regeneration was performed using glycine-HCl (pH 1.5). Binding curves at different nanobody concentrations were used to calculate kinetic parameters (Kₐ, Kd, KD) (Table 2 and FIG. 2).

| Binder | Kd [nM] | koff [s⁻¹] | kon [M⁻¹ s⁻¹] |
| --- | --- | --- | --- |
| B1 | 907 | 0.00325 | 3580 |
| B2 | 16 | 3e-05 | 1870 |
| B3 | 73.6 | 0.00056 | 7610 |
| B4 | 11.9 | 0.00167 | 141000 |
| B5 | 1060 | 0.00114 | – |
| B6 | 75.7 | 0.0005 | 6600 |
| B7 | 14.3 | 0.00157 | 110000 |
| B8 | 944 | 0.00344 | 3640 |
| B9 | 3.93 | 0.00021 | 53500 |
| B10 | 224 | 0.00485 | 21600 |
| B11 | 93 | 0.002 | 21500 |
| B12 | 4.63 | 0.00046 | 99300 |

Molecular target: T2, AAV8 (adeno-associated virus 8)
T2 construct: also called adeno-associated virus serotype 8
Assay: SPR, AAV amine-coupled to CM5 chip;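 also: nanobodies flowed as analyte at seven concentrations spanning 1–100 nM over immobilized AAV (500–800 RU), kinetic constants derived by fitting the binding curves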
Experimental: as §1

| Binder | Kd [nM] | koff [s⁻¹] | kon [M⁻¹ s⁻¹] |
| --- | --- | --- | --- |
| B1 | 791 | 0.00466 | 5890 |
| B13 | 36.2 | 0.00356 | 98300 |
| B2 | 128 | 0.00044 | 3440 |
| B3 | 98.1 | 0.00092 | 9380 |
| B14 | 86.5 | 0.00058 | 6710 |
| B4 | 182 | 0.00436 | 24000 |
| B15 | 99.4 | 0.00091 | 9160 |
| B16 | 23.3 | 0.00018 | 7740 |
| B5 | 368 | 0.0018 | 4890 |
| B6 | 227 | 0.0017 | 7500 |
| B17 | 108 | 0.00041 | 3790 |
| B7 | 19.2 | 0.00181 | 94100 |
| B18 | 2.25 | 0.00026 | 116000 |
| B19 | 12.4 | 0.00192 | 155000 |
| B8 | 42.4 | 0.00737 | 174000 |
| B20 | 0.76 | 6e-05 | 78900 |
| B9 | 27.1 | 0.00044 | 16300 |
| B10 | 265 | 0.00779 | 29400 |
| B11 | 16.4 | 0.00137 | 83300 |
| B12 | 2.92 | 0.00038 | 130000 |
| B21 | 1.05 | 0.00012 | 115000 |
| B22 | 15.4 | 0.00169 | 110000 |

Molecular target: T3, AAV5 (adeno-associated virus 5)
T3 construct: also called adeno-associated virus serotype 5
Assay: SPR, AAV amine-coupled to CM5 chip;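 also: nanobodies flowed as analyte at seven concentrations spanning 1–100 nM over immobilized AAV (500–800 RU), kinetic constants derived by fitting the binding curves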
Experimental: as §1

| Binder | Kd [nM] | koff [s⁻¹] | kon [M⁻¹ s⁻¹] |
| --- | --- | --- | --- |
| B1 | 748 | 0.00507 | 6780 |
| B13 | 6.75 | 0.00124 | 184000 |
| B2 | 7.14 | 2e-05 | 2800 |
| B3 | 37 | 0.00015 | 4060 |
| B14 | 171 | 0.00166 | 9680 |
| B4 | 45.3 | 0.00608 | 134000 |
| B15 | 4.49 | 3e-05 | 6690 |
| B16 | 130 | 0.00117 | 9030 |
| B5 | 213 | 0.00163 | 7660 |
| B6 | 81.8 | 0.00046 | 5620 |
| B17 | 192 | 0.00191 | 9940 |
| B7 | 4.64 | 0.00081 | 175000 |
| B18 | 14.5 | 0.00133 | 91800 |
| B19 | 578 | 0.00544 | 9410 |
| B8 | 31 | 0.00287 | 92500 |
| B20 | 23.1 | 0.00107 | 46400 |
| B9 | 3.79 | 0.00038 | 100000 |
| B10 | 622 | 0.00648 | 10400 |
| B11 | 9.46 | 0.00171 | 181000 |
| B12 | 0.987 | 0.00019 | 193000 |
| B21 | 1.69 | 0.0003 | 177000 |
| B22 | 48.9 | 0.00123 | 25100 |

Molecular target: T4, AAV9 (adeno-associated virus 9)
T4 construct: also called adeno-associated virus serotype 9
Assay: SPR, AAV amine-coupled to CM5 chip;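 also: nanobodies flowed as analyte at seven concentrations spanning 1–100 nM over immobilized AAV (500–800 RU), kinetic constants derived by fitting the binding curves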
Experimental: as §1

| Binder | Kd [nM] | koff [s⁻¹] | kon [M⁻¹ s⁻¹] |
| --- | --- | --- | --- |
| B1 | 712 | 0.00477 | 6700 |
| B13 | 7.64 | 0.00126 | 165000 |
| B2 | 106 | 0.00035 | 3320 |
| B3 | 8.16 | 6e-05 | 7360 |
| B14 | 44.8 | 0.00043 | 9600 |
| B4 | 31.9 | 0.00349 | 109000 |
| B15 | 34.5 | 0.0002 | 5790 |
| B16 | 82.2 | 0.0006 | 7300 |
| B5 | 28.9 | 0.00025 | 8660 |
| B6 | 420 | 0.00128 | 3050 |
| B17 | 223 | 0.0005 | 2240 |
| B7 | 6.03 | 0.00017 | 28200 |
| B18 | 6.34 | 0.00114 | 180000 |
| B19 | 62.3 | 0.00816 | 131000 |
| B8 | 92.3 | 0.00657 | 71200 |
| B20 | 1.45 | 0.00026 | 179000 |
| B9 | 1.29 | 0.00018 | 140000 |
| B10 | 96.9 | 0.00887 | 91500 |
| B11 | 30.9 | 0.00176 | 57000 |
| B12 | 1.87 | 0.00037 | 198000 |
| B21 | 4.13 | 0.00023 | 55700 |
| B22 | 5.14 | 0.00064 | 125000 |
